Data reported in patent US20260056186A1 (JIANGSU HENGRUI PHARMACEUTICALS, published 2026).

B1: TACI-9-1-Fc (Fc fusion)
chain: STSCRKEQGKFYDHLLRDCISCASICGQHPKQCAYFCENKLDKTHTCPPCPAPEAEGAPSVFLFPPKPKDTLMISRTPEVTCVVVDVSHEDPEVKFNWYVDGVEVHNAKTKPREEQYNSTYRVVSVLTVLHQDWLNGKEYKCKVSNKALPSSIEKTISKAKGQPREPQVYTLPPSRDELTKNQVSLTCLVKGFYPSDIAVEWESNGQPENNYKTTPPVLDSDGSFFLYSKLTVDKSRWQQGNVFSCSVMHEALHNHYTQKSLSLSPGK
B2: TACI-9-2-Fc (Fc fusion)
chain: SLSCSKEQGKFYDHLLRDCISCASICGQHPKQCAYFCENKLDKTHTCPPCPAPEAEGAPSVFLFPPKPKDTLMISRTPEVTCVVVDVSHEDPEVKFNWYVDGVEVHNAKTKPREEQYNSTYRVVSVLTVLHQDWLNGKEYKCKVSNKALPSSIEKTISKAKGQPREPQVYTLPPSRDELTKNQVSLTCLVKGFYPSDIAVEWESNGQPENNYKTTPPVLDSDGSFFLYSKLTVDKSRWQQGNVFSCSVMHEALHNHYTQKSLSLSPGK
B3: TACI-9-3-Fc (Fc fusion)
chain: SLSCREEQGKFYDHLLRDCISCASICGQHPKQCAYFCENKLDKTHTCPPCPAPEAEGAPSVFLFPPKPKDTLMISRTPEVTCVVVDVSHEDPEVKFNWYVDGVEVHNAKTKPREEQYNSTYRVVSVLTVLHQDWLNGKEYKCKVSNKALPSSIEKTISKAKGQPREPQVYTLPPSRDELTKNQVSLTCLVKGFYPSDIAVEWESNGQPENNYKTTPPVLDSDGSFFLYSKLTVDKSRWQQGNVFSCSVMHEALHNHYTQKSLSLSPGK
B4: TACI-9-4-Fc (Fc fusion)
chain: SLSCRQEQGKFYDHLLRDCISCASICGQHPKQCAYFCENKLDKTHTCPPCPAPEAEGAPSVFLFPPKPKDTLMISRTPEVTCVVVDVSHEDPEVKFNWYVDGVEVHNAKTKPREEQYNSTYRVVSVLTVLHQDWLNGKEYKCKVSNKALPSSIEKTISKAKGQPREPQVYTLPPSRDELTKNQVSLTCLVKGFYPSDIAVEWESNGQPENNYKTTPPVLDSDGSFFLYSKLTVDKSRWQQGNVFSCSVMHEALHNHYTQKSLSLSPGK
B5: TACI-9-5-Fc (Fc fusion)
chain: SLSCRKEQGEFYDHLLRDCISCASICGQHPKQCAYFCENKLDKTHTCPPCPAPEAEGAPSVFLFPPKPKDTLMISRTPEVTCVVVDVSHEDPEVKFNWYVDGVEVHNAKTKPREEQYNSTYRVVSVLTVLHQDWLNGKEYKCKVSNKALPSSIEKTISKAKGQPREPQVYTLPPSRDELTKNQVSLTCLVKGFYPSDIAVEWESNGQPENNYKTTPPVLDSDGSFFLYSKLTVDKSRWQQGNVFSCSVMHEALHNHYTQKSLSLSPGK
B6: TACI-9-6-Fc (Fc fusion)
chain: SRSCRKEQGKFYDHLLRTCISCASICGQHPKQCAYFCENKLDKTHTCPPCPAPEAEGAPSVFLFPPKPKDTLMISRTPEVTCVVVDVSHEDPEVKFNWYVDGVEVHNAKTKPREEQYNSTYRVVSVLTVLHQDWLNGKEYKCKVSNKALPSSIEKTISKAKGQPREPQVYTLPPSRDELTKNQVSLTCLVKGFYPSDIAVEWESNGQPENNYKTTPPVLDSDGSFFLYSKLTVDKSRWQQGNVFSCSVMHEALHNHYTQKSLSLSPGK
B7: TACI-9-7-Fc (Fc fusion)
chain: SRSCRKEQGKFYDHLLRACISCASICGQHPKQCAYFCENKLDKTHTCPPCPAPEAEGAPSVFLFPPKPKDTLMISRTPEVTCVVVDVSHEDPEVKFNWYVDGVEVHNAKTKPREEQYNSTYRVVSVLTVLHQDWLNGKEYKCKVSNKALPSSIEKTISKAKGQPREPQVYTLPPSRDELTKNQVSLTCLVKGFYPSDIAVEWESNGQPENNYKTTPPVLDSDGSFFLYSKLTVDKSRWQQGNVFSCSVMHEALHNHYTQKSLSLSPGK
B8: TACI-9-8-Fc (Fc fusion)
chain: SLSCRKEQGKFYDHLLRDCISCASICGQHPKQCAAFCENKLDKTHTCPPCPAPEAEGAPSVFLFPPKPKDTLMISRTPEVTCVVVDVSHEDPEVKFNWYVDGVEVHNAKTKPREEQYNSTYRVVSVLTVLHQDWLNGKEYKCKVSNKALPSSIEKTISKAKGQPREPQVYTLPPSRDELTKNQVSLTCLVKGFYPSDIAVEWESNGQPENNYKTTPPVLDSDGSFFLYSKLTVDKSRWQQGNVFSCSVMHEALHNHYTQKSLSLSPGK
B9: TACI-9-9-Fc (Fc fusion)
chain: SRSCRKEQGKFYDHLLRTCISCASICGQHPKQCARFCENKLDKTHTCPPCPAPEAEGAPSVFLFPPKPKDTLMISRTPEVTCVVVDVSHEDPEVKFNWYVDGVEVHNAKTKPREEQYNSTYRVVSVLTVLHQDWLNGKEYKCKVSNKALPSSIEKTISKAKGQPREPQVYTLPPSRDELTKNQVSLTCLVKGFYPSDIAVEWESNGQPENNYKTTPPVLDSDGSFFLYSKLTVDKSRWQQGNVFSCSVMHEALHNHYTQKSLSLSPGK
B10: TACI-9-10-Fc (Fc fusion)
chain: SLSCREEQGEFYDHLLRDCISCASICGQHPKQCAYFCENKLDKTHTCPPCPAPEAEGAPSVFLFPPKPKDTLMISRTPEVTCVVVDVSHEDPEVKFNWYVDGVEVHNAKTKPREEQYNSTYRVVSVLTVLHQDWLNGKEYKCKVSNKALPSSIEKTISKAKGQPREPQVYTLPPSRDELTKNQVSLTCLVKGFYPSDIAVEWESNGQPENNYKTTPPVLDSDGSFFLYSKLTVDKSRWQQGNVFSCSVMHEALHNHYTQKSLSLSPGK
B11: TACI-9-11-Fc (Fc fusion)
chain: SLSCSEEQGEFYDHLLRDCISCASICGQHPKQCAYFCENKLDKTHTCPPCPAPEAEGAPSVFLFPPKPKDTLMISRTPEVTCVVVDVSHEDPEVKFNWYVDGVEVHNAKTKPREEQYNSTYRVVSVLTVLHQDWLNGKEYKCKVSNKALPSSIEKTISKAKGQPREPQVYTLPPSRDELTKNQVSLTCLVKGFYPSDIAVEWESNGQPENNYKTTPPVLDSDGSFFLYSKLTVDKSRWQQGNVFSCSVMHEALHNHYTQKSLSLSPGK
B12: TACI-9-12-Fc (Fc fusion)
chain: STSCRKEQGKFYDHLLRDCISCASICGQHPKQCAAFCENKLDKTHTCPPCPAPEAEGAPSVFLFPPKPKDTLMISRTPEVTCVVVDVSHEDPEVKFNWYVDGVEVHNAKTKPREEQYNSTYRVVSVLTVLHQDWLNGKEYKCKVSNKALPSSIEKTISKAKGQPREPQVYTLPPSRDELTKNQVSLTCLVKGFYPSDIAVEWESNGQPENNYKTTPPVLDSDGSFFLYSKLTVDKSRWQQGNVFSCSVMHEALHNHYTQKSLSLSPGK
B13: TACI-9-13-Fc (Fc fusion)
chain: STSCRKEQGKFYDHLLRDCISCASICGQHPKQCAYYCENKLDKTHTCPPCPAPEAEGAPSVFLFPPKPKDTLMISRTPEVTCVVVDVSHEDPEVKFNWYVDGVEVHNAKTKPREEQYNSTYRVVSVLTVLHQDWLNGKEYKCKVSNKALPSSIEKTISKAKGQPREPQVYTLPPSRDELTKNQVSLTCLVKGFYPSDIAVEWESNGQPENNYKTTPPVLDSDGSFFLYSKLTVDKSRWQQGNVFSCSVMHEALHNHYTQKSLSLSPGK
B14: TACI-9-14-Fc (Fc fusion)
chain: STSCRKEQGKFYDHLLRDCISCASICGQHPKQCAAYCENKLDKTHTCPPCPAPEAEGAPSVFLFPPKPKDTLMISRTPEVTCVVVDVSHEDPEVKFNWYVDGVEVHNAKTKPREEQYNSTYRVVSVLTVLHQDWLNGKEYKCKVSNKALPSSIEKTISKAKGQPREPQVYTLPPSRDELTKNQVSLTCLVKGFYPSDIAVEWESNGQPENNYKTTPPVLDSDGSFFLYSKLTVDKSRWQQGNVFSCSVMHEALHNHYTQKSLSLSPGK
B15: TACI-9-15-Fc (Fc fusion)
chain: STSCREEQGEFYDHLLRDCISCASICGQHPKQCAAFCENKLDKTHTCPPCPAPEAEGAPSVFLFPPKPKDTLMISRTPEVTCVVVDVSHEDPEVKFNWYVDGVEVHNAKTKPREEQYNSTYRVVSVLTVLHQDWLNGKEYKCKVSNKALPSSIEKTISKAKGQPREPQVYTLPPSRDELTKNQVSLTCLVKGFYPSDIAVEWESNGQPENNYKTTPPVLDSDGSFFLYSKLTVDKSRWQQGNVFSCSVMHEALHNHYTQKSLSLSPGK

target: T1, BAFF (Sino biological, 10056-HNCH) (UniProt Q9Y275 134-285, biotinylated in the blocking ELISA (site not stated)); experiment: ELISA, BAFF coated at 1 ug/mL, anti-human IgG-HRP
T1 construct: also called BLyS
Experimental: The BAFF binding activity of the TACI-Fc fusion proteins was assessed as follows: BAFF (Sino biological, 10056-HNCH) protein was diluted with a pH 7.4 PBS (BasalMedia, B320) buffer to 1 μg/mL, and the resulting dilution was added to a 96-well microplate (Corning, 3590) at 100 μL/well. The plate was incubated overnight at 4° C. After the liquid was discarded, 5% skim milk (BD, 232100), diluted with PBS, was added at 300 μL/well for blocking, and the plate was incubated at 37° C. for 2 h. After the blocking, the blocking solution was discarded, and the plate was washed 3 times with a PBST buffer (pH 7.4 PBS containing 0.10% tween-20). Serially diluted test antibody or fusion protein solutions were added at 100 μL/well, and the plate was incubated at 37° C. for 1 h. […] The plate was incubated at 37° C. for 1 h. After the plate was washed 3 times with PBST, the chromogenic substrate TMB (KPL, 5120-0077) was added at 100 μL/well. The plate was incubated at room temperature for 10-15 min, and 1 M H₂SO₄ was added at 50 μL/well to stop the reaction. The absorbance at 450 nm was measured using a microplate reader. Curves for the binding of the antibodies to the antigen were fitted using software, and EC₅₀ values were calculated.
The BAFF binding activity of the constructed TACI-Fc fusion proteins was assessed (see Example 2 for the experimental method), and the results are shown in Table 3: […]

T1 sequence (Q9Y275 134-285 limits assumed): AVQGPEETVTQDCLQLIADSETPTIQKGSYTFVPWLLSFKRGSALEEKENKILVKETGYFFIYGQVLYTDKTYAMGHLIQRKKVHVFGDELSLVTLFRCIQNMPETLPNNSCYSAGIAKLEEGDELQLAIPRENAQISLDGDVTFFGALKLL

B1 and B2 are within 1.5-fold of each other in EC50: 382 pM for the first, 278 pM for the second.

Compared with B3, B4 is 1.8-fold higher in EC50: 265 pM for the first, 470 pM for the second. The first is the more potent here.

Compared with B5, B6 is 2.5-fold higher in EC50: 146 pM for the first, 367 pM for the second. The first is the more potent here.

Going from B7 to B8, the EC50 falls from 727 pM to 200 pM (3.6-fold).

Going from B9 to B10, the EC50 falls from 937 pM to 120 pM (7.8-fold).

Going from B11 to B12, the EC50 falls from 195 pM to 122 pM (1.6-fold). The second is the more potent here.

First: B13
Second: B14
The EC50 of the first is 1.9-fold higher: 433 pM for the first, 223 pM for the second. The second is the more potent here.

B15 gave an EC50 of 86.9 pM.
